Series [1] concerns the target T1, LARP6 NTD (Homo sapiens, UniProt Q9BRS8 2-300).
T1 sequence: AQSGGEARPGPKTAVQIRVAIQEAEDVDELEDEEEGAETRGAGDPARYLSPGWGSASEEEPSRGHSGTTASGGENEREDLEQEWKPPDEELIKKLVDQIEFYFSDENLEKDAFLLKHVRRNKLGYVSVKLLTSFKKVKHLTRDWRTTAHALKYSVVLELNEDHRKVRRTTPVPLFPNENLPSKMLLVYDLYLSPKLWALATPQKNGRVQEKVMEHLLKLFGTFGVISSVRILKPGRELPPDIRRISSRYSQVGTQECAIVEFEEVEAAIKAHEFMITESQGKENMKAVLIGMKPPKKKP
Put plainly: BLI; 0.5 mM Mg2+; BLI: 20 mM Tris-HCl pH 7.5, 100 mM KCl, 0.5 mM MgCl2, 1 mM TCEP, 0.05% Tween-20, 25 °C; MST, NMR and SAXS buffers not in the material. To be noted: protein: recombinant; tags: 6xHis-SUMO-TEV tag, cleaved; label: 5' biotin; single strand.

Series [2] concerns the target T2, LARP6 La-module (Homo sapiens, UniProt Q9BRS8 70-300).
T2 sequence: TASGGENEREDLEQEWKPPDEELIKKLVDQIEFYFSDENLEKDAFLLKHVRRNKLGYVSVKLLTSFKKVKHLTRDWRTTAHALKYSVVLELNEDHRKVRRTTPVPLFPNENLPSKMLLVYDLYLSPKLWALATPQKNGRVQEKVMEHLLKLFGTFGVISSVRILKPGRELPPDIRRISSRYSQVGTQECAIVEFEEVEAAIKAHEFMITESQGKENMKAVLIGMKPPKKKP
Described as above. To be noted: protein: recombinant; tags: His tag cleaved by TEV; label: 5' biotin; single strand.

Series [3] has as its target T3, LARP6 NTR (Homo sapiens, UniProt Q9BRS8 2-83).
T3 sequence: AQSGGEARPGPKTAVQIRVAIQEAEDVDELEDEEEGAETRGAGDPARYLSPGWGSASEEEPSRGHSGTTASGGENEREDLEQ
Described as above. To be noted: protein: recombinant; tags: 6xHis-SUMO-TEV tag, cleaved; label: 5' biotin; single strand.

Series [4] has as its target T1, LARP6 NTD. Put plainly: BLI; Mg; 20 mM Tris-HCl pH 7.5, 100 mM KCl, 0.5 mM MgCl2, 1 mM TCEP, 0.05% Tween-20, 25 C; steady state, 1:1 fit. As to conditions: label: 5' biotin.
For series [5], the target named is T2, LARP6 La-module. The description is as above. As to conditions: label: 5' biotin.
The target in series [6] is T1, LARP6 NTD. The series is described as follows: MST; BLI: 20 mM Tris-HCl pH 7.5, 100 mM KCl, 0.5 mM MgCl2, 1 mM TCEP, 0.05% Tween-20, 25 °C; MST, NMR and SAXS buffers not in the material. As to conditions: protein: recombinant; tags: 6xHis-SUMO-TEV tag, cleaved; label: 5' 6-FAM; single strand.
Series [7] concerns the target T2, LARP6 La-module. The series is described as above. As to conditions: protein: recombinant; tags: His tag cleaved by TEV; label: 5' 6-FAM; single strand.
The target in series [8] is T3, LARP6 NTR. Described as above. As to conditions: protein: recombinant; tags: 6xHis-SUMO-TEV tag, cleaved; label: 5' 6-FAM; single strand.

By Kd is commonly meant the constant that tells how readily two partners part at equilibrium.

B1: CTNNA1 P1 (5' biotin) (ssRNA)
RNA: CUAAAUACAACACUGAUACUAGAUU
For B1, the Kd in series [1] stood at 61 ± 5 nM; in series [2] it was 1.5 ± 0.4 nM; in series [3], 1200 ± 500 nM.

B2: CTNNA1 D1 (ssRNA)
RNA: AGGUGGUGAAUUUUCCAAGAACAUA
Regarding B2, the values for the Kd in series [1], in series [4] and in series [5] were 85 ± 4 nM, 87 ± 4 nM and 2 ± 0.1 nM, respectively.

B3: CTNNA1 U1 (ssRNA)
RNA: ACUGUUCGUCACUCAAAUGAAUUUG
For the molecule B3, the Kd in series [1] came to 587 ± 29 nM; in series [5], 14 ± 0.8 nM.

B4: CTNNA1 P1 (ssRNA)
RNA: CUAAAUACAACACUGAUACUAGAUU
For the molecule B4, the results for the Kd in series [4] and in series [5] were 58 ± 5 nM and 1.3 ± 0.4 nM, respectively.

B5: CTNNA1 P2 (ssRNA)
RNA: GGAAAUGGGCAGACUGAACCAGUCC
For the molecule B5, the values for the Kd in series [2], in series [4] and in series [5] were 0.91 ± 0.05 nM, 17 ± 1.2 nM and 0.9 ± 0.05 nM, respectively.

B6: CTNNA1 U2 (ssRNA)
RNA: CCCUCGGGGCUCCUGAAUAUCAGUC
For the molecule B6, the Kd in series [1] was 183 ± 5 nM; in series [2], 4.4 ± 0.1 nM; in series [4] it was 180 ± 5 nM; in series [5] it was 4.3 ± 0.1 nM.

B7: CTNNA1 D2 (ssRNA)
RNA: GUUUAAGUUGAUUAAAAAUGCUUUU
B7: the figures for the Kd in series [1], in series [4] and in series [5] were 367 ± 57 nM, 360 ± 57 nM and 6.9 ± 0.6 nM, respectively.

B8: CTNNA1 P1 (5' 6-FAM) (ssRNA)
RNA: CUAAAUACAACACUGAUACUAGAUU
As to B8, the equilibrium dissociation constant (Kd) amounted to 99 nM in series [6], 5.8 nM in series [7] and 8300 nM in series [8].

Values taken from publication PMC13031558, “An intrinsically disordered region mediates RNA-binding selectivity and cellular activities of LARP6”.
